Tests used:
Assay in all cases: Crosslinking/co-immunoprecipitation/mass spectrometry (TMT quantitative proteomics) to identify irisin receptors
Format in all cases: binding
[1] = target: T1, MLO-Y4 cell surface proteins (Mus musculus, UniProt P62960); conditions: co-precipitated protein Ybx1 (YBOX1_MOUSE)
T1 construct: endogenous in cells; host or cells: MLO-Y4
Outline: (§1)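 Mouse MLO-Y4 cells were switched to serum-free FreeStyle medium for 4 h, chilled, then exposed to 10 nM His-tagged irisin (or adipsin as control) for 20 min. Cells were crosslinked with 1.5 mM DTSSP (30 min, ice), and bound proteins were pulled down on Ni-NTA and eluted with 250 mM imidazole. Eluates were separated by SDS-PAGE, trypsin-digested in gel, TMT 6-plex labelled and quantified by MS3-based LC-MS/MS on an Orbitrap Fusion Lumos.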

[2] = target: T2, MLO-Y4 cell surface proteins (Mus musculus, UniProt Q66L42); conditions: co-precipitated protein Map3k10 (M3K10_MOUSE)
T2 construct: endogenous in cells; host or cells: MLO-Y4
T2 sequence (Q66L42 whole entry): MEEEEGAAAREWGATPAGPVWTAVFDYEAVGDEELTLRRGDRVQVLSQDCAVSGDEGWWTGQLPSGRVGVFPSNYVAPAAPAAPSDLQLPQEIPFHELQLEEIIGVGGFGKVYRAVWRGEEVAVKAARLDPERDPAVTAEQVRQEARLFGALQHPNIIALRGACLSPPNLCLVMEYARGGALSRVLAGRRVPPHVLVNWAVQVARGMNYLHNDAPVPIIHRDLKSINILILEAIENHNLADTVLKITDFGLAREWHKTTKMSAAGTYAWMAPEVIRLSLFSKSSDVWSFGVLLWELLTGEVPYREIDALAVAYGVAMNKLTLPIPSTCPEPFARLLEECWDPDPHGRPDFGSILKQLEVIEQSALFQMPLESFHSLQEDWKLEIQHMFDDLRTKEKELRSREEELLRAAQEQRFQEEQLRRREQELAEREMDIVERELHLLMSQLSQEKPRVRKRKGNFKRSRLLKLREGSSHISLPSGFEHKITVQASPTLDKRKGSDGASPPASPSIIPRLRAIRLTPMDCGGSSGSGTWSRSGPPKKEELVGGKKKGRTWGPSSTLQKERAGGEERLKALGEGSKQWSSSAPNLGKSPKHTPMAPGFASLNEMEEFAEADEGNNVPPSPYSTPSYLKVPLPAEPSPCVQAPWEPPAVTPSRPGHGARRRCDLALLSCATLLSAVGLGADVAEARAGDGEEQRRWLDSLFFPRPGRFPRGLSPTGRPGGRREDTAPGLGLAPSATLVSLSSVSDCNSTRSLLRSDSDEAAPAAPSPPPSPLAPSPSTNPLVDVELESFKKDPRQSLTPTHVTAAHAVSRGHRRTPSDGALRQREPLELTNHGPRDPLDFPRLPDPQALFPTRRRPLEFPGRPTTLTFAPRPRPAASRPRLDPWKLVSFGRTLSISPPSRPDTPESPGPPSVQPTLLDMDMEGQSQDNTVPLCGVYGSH
Outline: as §1

[3] = target: T3, MLO-Y4 cell surface proteins (Mus musculus, UniProt Q921N7); conditions: co-precipitated protein Tmem70 (TMM70_MOUSE)
T3 construct: endogenous in cells; host or cells: MLO-Y4
T3 sequence (Q921N7 78-253): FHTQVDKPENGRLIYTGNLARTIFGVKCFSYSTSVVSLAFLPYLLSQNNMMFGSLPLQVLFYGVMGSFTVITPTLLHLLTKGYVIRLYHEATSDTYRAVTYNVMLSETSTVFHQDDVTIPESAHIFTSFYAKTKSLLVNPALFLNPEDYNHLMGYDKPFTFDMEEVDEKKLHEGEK
Outline: as §1

[4] = target: T4, MLO-Y4 cell surface proteins (Mus musculus, UniProt P97350); conditions: co-precipitated protein Pkp1 (PKP1_MOUSE)
T4 construct: endogenous in cells; host or cells: MLO-Y4
T4 sequence (P97350 1-728): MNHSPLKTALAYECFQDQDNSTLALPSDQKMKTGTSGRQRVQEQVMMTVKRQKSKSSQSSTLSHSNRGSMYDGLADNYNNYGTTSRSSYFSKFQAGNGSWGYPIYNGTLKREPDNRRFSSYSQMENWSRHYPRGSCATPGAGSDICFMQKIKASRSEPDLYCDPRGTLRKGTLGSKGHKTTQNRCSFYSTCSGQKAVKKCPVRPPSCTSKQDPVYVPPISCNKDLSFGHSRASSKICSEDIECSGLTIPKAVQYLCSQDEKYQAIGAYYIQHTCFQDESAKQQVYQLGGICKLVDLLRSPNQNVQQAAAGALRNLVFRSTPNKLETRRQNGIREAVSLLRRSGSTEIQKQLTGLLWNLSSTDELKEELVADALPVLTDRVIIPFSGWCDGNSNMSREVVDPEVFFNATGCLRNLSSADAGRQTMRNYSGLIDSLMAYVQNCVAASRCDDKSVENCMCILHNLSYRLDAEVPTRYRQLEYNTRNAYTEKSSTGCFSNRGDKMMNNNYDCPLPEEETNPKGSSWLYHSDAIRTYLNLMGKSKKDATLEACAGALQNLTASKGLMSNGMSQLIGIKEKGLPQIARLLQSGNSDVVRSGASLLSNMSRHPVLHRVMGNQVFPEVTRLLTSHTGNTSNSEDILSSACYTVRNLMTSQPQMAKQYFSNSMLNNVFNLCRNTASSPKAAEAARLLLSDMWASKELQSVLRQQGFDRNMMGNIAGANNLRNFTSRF
Outline: as §1

T1 sequence (P62960 whole entry): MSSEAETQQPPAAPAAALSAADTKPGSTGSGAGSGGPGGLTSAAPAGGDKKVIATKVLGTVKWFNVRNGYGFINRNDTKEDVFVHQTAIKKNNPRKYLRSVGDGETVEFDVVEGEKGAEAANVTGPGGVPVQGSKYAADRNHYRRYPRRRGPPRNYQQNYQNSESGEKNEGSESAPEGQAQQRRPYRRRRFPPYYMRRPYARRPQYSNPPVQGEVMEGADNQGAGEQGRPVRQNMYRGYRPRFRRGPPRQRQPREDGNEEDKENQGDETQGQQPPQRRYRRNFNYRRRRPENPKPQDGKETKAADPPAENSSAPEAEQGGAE

- TMT signal-to-noise ratio [1]: 219.172
- TMT signal-to-noise ratio [2]: 109.366
- TMT signal-to-noise ratio [3]: 88.4078
- TMT signal-to-noise ratio [4]: 98.2846
Substance: adipsin
